Target: the molecule itself
Experiment: SEC; ETR1 in DMPC/MSP1E3D1 nanodiscs; Superose 6 Increase 10/300 GL, 50 mM Tris-HCl pH 8.0, 200 mM NaCl, 0.3 mL/min; column calibrated with protein standards; elution volume 16.77 mL, ~450 kDa

B1: ethylene receptor 1 (ETR1) from Arabidopsis thaliana, full-length, with N-terminal 10xHis-tag (receptor, UniProt P49333 1-738, looked up)
chain: MEVCNCIEPQWPADELLMKYQYISDFFIAIAYFSIPLELIYFVKKSAVFPYRWVLVQFGAFIVLCGATHLINLWTFTTHSRTVALVMTTAKVLTAVVSCATALMLVHIIPDLLSVKTRELFLKNKAAELDREMGLIRTQEETGRHVRMLTHEIRSTLDRHTILKTTLVELGRTLALEECALWMPTRTGLELQLSYTLRHQHPVEYTVPIQLPVINQVFGTSRAVKISPNSPVARLRPVSGKYMLGEVVAVRVPLLHLSNFQINDWPELSTKRYALMVLMLPSDSARQWHVHELELVEVVADQVAVALSHAAILEESMRARDLLMEQNVALDLARREAETAIRARNDFLAVMNHEMRTPMHAIIALSSLLQETELTPEQRLMVETILKSSNLLATLMNDVLDLSRLEDGSLQLELGTFNLHTLFREVLNLIKPIAVVKKLPITLNLAPDLPEFVVGDEKRLMQIILNIVGNAVKFSKQGSISVTALVTKSDTRAADFFVVPTGSHFYLRVKVKDSGAGINPQDIPKIFTKFAQTQSLATRSSGGSGLGLAISKRFVNLMEGNIWIESDGLGKGCTAIFDVKLGISERSNESKQSGIPKVPAIPRHSNFTGLKVLVMDENGVSRMVTKGLLVHLGCEVTTVSSNEECLRVVSHEHKVVFMDVCMPGVENYQIALRIHEKFTKQRHQRPLLVALSGNTDKSTKEKCMSFGLDGVLLKPVSLDNIRDVLSDLLEPRVLYEGM
notes: Ethylene receptor 1 (ETR1), Arabidopsis thaliana, full length, 738 residues, 82.5 kDa per monomer; Membrane protein, measured embedded in DMPC nanodiscs held by the scaffold protein MSP1E3D1 (His-tag cleaved by TEV); No cleavage of the ETR1 His-tag is described; the loaded nanodiscs were eluted from Ni-INDIGO beads by it just before SEC; also called ETR1_10xHis; ethylene receptor ETR1; source: E. …
- stoichiometry N: 2
